experiment: label from the status in PepcDB records

**Q.** Which protein production does the source give for “MPDTPLLASSQPAAGRRALGLSARLAFAALAGGGGLAWIDRGDTALWLIAPALLWLQVLLTLAGVLALAGGSRLPGALIVALSAGLLVPPLTVEMRLLGFFLAAPPPDQSILTTAQYTLAGALAAGALAWILARRRFGRPPCSWTMLDCGGPGAEIDMDAALASLSAETLRRRDRAYIDAPPPLPFAPRGPPRPPPPTLGGPRLKRMPAGLGGAILCLESDDHTLRVHTTQGSGTLAGRLGDAALDLGESAGLRVHRSWWVAREAVSAIERDGRRMRLILLNGMDVPVSRAHQPKVLAGPWPNLRVS” here?
**A.** failed

**Q.** For “MPDVLPHPDGPDSTARPWCSVVIPVLHEAVTIAAQVAHVRHVAARCGMEVEVVVADGAKERDTLAALPEGCCTAVASCPGRARQMNAGAGKARGETLLFLHADTHLPPEAFTLLRRARQAGIRAGAFRLGIAATGLWFRLVERLACWRNRLVRTPYGDQAQFFDAALFRAVGGYPDQPLMEDVEVMRRLRKAGERIVILPGRVETSARRWFVEGPLRCTLRNLCLRLLYALGVPAHALSRWYRAHKERP”, which protein production is on record?
**A.** failed

**Q.** Which protein production does the source give for “MPDYDLIAILGPTASGKTPFAAALAAELNTEIISADSRQIYRGMDLGTGKDLEDYTINGRQIPYHLIDIADPGYKYNVFEYQRDFLTAYETIKQKGCLPVLCGGTGLYLESVLKGYRLIPVPENQELRVRLAEKSLEELTAILSSYKTLHNSTDVDTVKRAIRAIEIEEYYAKTPIEEREFPQLNSLIIGVDIDRELRREKITRRLKQRLDDGMVEEVRRLLAEGIQPDDLIYYGLEYKYLTLYAIGKMTYDEMFTGLETAIHQFAKRQMTWFRGMERRGFTIHWVDASLPMEEKINFVKQKLKEFLEHHHHHH” here?
**A.** not failed

**Q.** With “MPEAPGDTPLALDLLRRLRRALGAAGLPELEAWDLLAAATGWPRKALYGRLTSPLPQEALDRAEALLKRRLQGYPLQYLVGEVEFFGLPLRVEEGVLIPRPETEGLVELALGLPLPPAPRILDVGTGTGAIALALKRALPEAEVYATEVDPKALALARENAERLGLAVVFLPAPLTGGLKDLDLVVSNPPYLPEAYREKAPRELGYESPLALYAGPEGLSVARPLAEEARRSLKPGGYLLLELAPENVHLLARELREKGWKEVAVLPDLAGRDRYLRARRPPEEAEGEEGRLHRPHLPQSLHPHPDHPGPPPEEEEALGQVRLRGEAGVLRGHALLQKALPDPFPHLQEDGPGPGLPRVEEGGAGENLPRGPQALFRVKAGPDEEDAVLVPRPLQDGKPRALGPAEKPHALEAQEEGPPPGRLFQRHGALLRAQAHLPQVEPLAQAGEAFCELALLPLQHPGLDEEALDPPLLLGELLAHPGQGLPEPGGLLLQNLPGAP” as the sequence, how does the protein production read?
**A.** failed

**Q.** For “MPEEALKTYEELLELEKRIGNKREIGLTLANLAIIKDELGNVEEAIKLMEEARKIFEELKDENNYLISLIDLAHFKYELGEYEEAMKLIREVLRNPVDKEIEVNARLVESEIYAGERKYKEAAISLRNALQRSEDDEELFSLVFDSLTEFLEGLFNESRLEHHHHHH”, which protein production is on record?
**A.** not failed

**Q.** With “MPELKVVVSIKQVPDVDELRIDPVTNNLVREGVPAVINPPDLHAIEEAVRLKERYGAKTIVITMGPPQADSALREALAMGIDEAYLISDRAMAGADTWATSYTISKAVQKLGGADLILFGRRAVDGETEQVGPQTGKWLGLPVIGYVSEIKSLEKDKIVVTRTTEFDEEVIEAPVPVVLTILEVANKPRQPDILSLIKAKTAKVTVWNKDDIKAEPNKIGLAGSPTKVIKVQPPPKTRKAEIIDGKKDVEKAAKWFLDKIFESLKE” as the sequence, how does the protein production read?
**A.** failed

**Q.** For “MPELPWVEKYRPKKLSEIVNQEEAIEKVRAWIESWLHGHPPKKKALLLAGPPGSGKTTTVYALANEYNFEVIELNASDERTYEKISRYVQAAYTMDILGKRRKIIFLDEADNIEPSGAKEIAKLIDKAKNPIIMAANKYWEVPKEIREKAELVEYKRLTQRDVMNALIRILKREGITVPKEILLEIAKRSSGDLRAAINDLQTVVVGGYEDATQVLAYRDVEKTVFQALGLVFGSDNAKRAKMAMWNLDMSPDEFLLWVDENIPHLYLNPEEIAQAYDAISRADIYLGRAARTGNYSLWKYAIDMMTAGVAVAGRKRRGFVKFYPPNTLKILAESKEEREIRESIIKKIIREMHMSRLQAIETMKIIREIFENNLDLAAHFTVFLGLSEKEVEFLAGKEKAGTIWGKALALRRKLKELGIREEEKPKVEIEEEEEEEEKTEEEKEEIEEKPEEEKEEEKKEKEKPKKGKQATLFDFLKK”, which protein production is on record?
**A.** failed

— a protein production outcome set (Wang et al. 2014)
